These results are taken from patent publication US20230365711A1 (Hoffmann-La Roche, published 2023).

The target of assay [1] is T1, huNABA-avi-his (hybrid protein N-A1-B3-A2: N and A1 domains of human BGP, B3 domain of human CEA, A2 domain … (human, biotinylated at the avi tag (in vivo, co-transfected biotin ligase))).
T1 construct: also called NABA-avi-his reagent; biotinylated NABA
T1 chain: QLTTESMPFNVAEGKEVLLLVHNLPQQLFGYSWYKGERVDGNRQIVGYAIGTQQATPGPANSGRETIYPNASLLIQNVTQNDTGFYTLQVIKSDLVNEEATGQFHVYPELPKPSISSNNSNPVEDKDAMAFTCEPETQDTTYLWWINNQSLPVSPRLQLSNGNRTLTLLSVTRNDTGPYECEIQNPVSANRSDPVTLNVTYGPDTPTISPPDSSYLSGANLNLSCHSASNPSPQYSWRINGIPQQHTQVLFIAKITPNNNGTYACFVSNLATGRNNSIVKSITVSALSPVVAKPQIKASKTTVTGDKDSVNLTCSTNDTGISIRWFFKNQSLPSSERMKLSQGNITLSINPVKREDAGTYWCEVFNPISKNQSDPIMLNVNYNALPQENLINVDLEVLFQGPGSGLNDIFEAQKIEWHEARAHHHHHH
The experiment in a line: Biacore on immobilized NABA-avi-his; Bivalent Affinity. (Surface plasmon resonance follows binding to a sensor surface in real time, without labels.)

Assay [2] addresses T1, huNABA-avi-his (hybrid protein …). Nature of the assay: Proteon SPR, antibody analyte on biotinylated NABA (Neutravidin chip); column Ka (M). The source says:
(§1) Shown in FIG. 22 are Proteon (Biacore) sensorgrams obtained for the binding of the CDR-H3 antibody variants to the CEA antigen-harbouring chimeric protein NABA. […] The affinity matured precursor clone 5HFF12 and the parental antibody CH7A were included for direct comparison. All antibodies tested in this assay had 2F1 as the light chain. […] The relative affinity of each, measured in the bivalent form, is as follows: 5HFF12>CH7A (Y98A/D99Y)>CH7A (Y98A)>CH7A>CH7A (E102Q)>CH7A (D99Y)>CH7A (D99H)>CH7A (A103T)>CH7A (V101F)>CH7A (W95Y).

The target is the same in assay [3]. The experiment in a line: Proteon SPR, antibody analyte on biotinylated NABA (Neutravidin chip).
From the text: as §1

The target is the same in assay [4]. Described as above.
For assay [5] the target is unchanged. Nature of the assay: Proteon SPR, antibody analyte on biotinylated NABA (Neutravidin chip); column Ka (M).
The target is the same in assay [6]. Nature of the assay: Biacore, Fab on immobilized NABA-avi-his; column Monovalent Affinity.

B1: H4E9 x 2F1 (bivalent) (antibody, V domains shown)
VH: QVQLVQSGSELKKPGASVKVSCKASGYTFTEFGMNWVRQAPGQGLEWMGWINTKTGEATYIEEFKGRFVFSLDTSVSTAYLQISSLKAEDTAVYYCARWDFYDYVEAMDYWGQGTTVTVSS
VL: DIQMTQSPSSLSASVGDRVTITCKASAAVGTYVAWYQQKPGKAPKLLIYSASYRKRGVPSRFSGSGSGTDFTLTISSLQPEDFATYYCHQYYTYPLFTFGQGTKLEIKR
notes: bivalent form of the clone
With B1, in assay [1], the Kd was 0.452 nM, the koff (commonly the rate constant with which the complex falls apart) came to 0.000191 s⁻¹ and the kon (commonly the second-order rate constant of association) was 423000 M⁻¹ s⁻¹.

B2: antibody with heavy chain CH7A (A103T) and light chain 2F1 (antibody, V domains shown)
VH: QVQLVQSGSELKKPGASVKVSCKASGYTFTEFGMNWVRQAPGQGLEWMGWINTKTGEATYVEEFKGRFVFSLDTSVSTAYLQISSLKAEDTAVYYCARWDFYDYVETMDYWGQGTTVTVSS
VL: DIQMTQSPSSLSASVGDRVTITCKASAAVGTYVAWYQQKPGKAPKLLIYSASYRKRGVPSRFSGSGSGTDFTLTISSLQPEDFATYYCHQYYTYPLFTFGQGTKLEIKR
notes: Bivalent form
The molecule B2 registered a kon in assay [2] of 25100 M⁻¹ s⁻¹. Moreover, the Kd in assay [3] is 2.87 nM.

B3: anti-CEA antibody with heavy chain CH1A1G and light chain 2F1 (antibody, V domains shown)
VH: QVQLVQSGAEVKKPGASVKVSCKASGYTFTEFGMNWVRQAPGQGLEWMGWINTKTGEATYVEEFKGRVTMTTDTSTSTAYMEIRSLRSDDTAVYYCARWDFYDYVEAMDYWGQGTTVTVSS
VL: DIQMTQSPSSLSASVGDRVTITCKASAAVGTYVAWYQQKPGKAPKLLIYSASYRKRGVPSRFSGSGSGTDFTLTISSLQPEDFATYYCHQYYTYPLFTFGQGTKLEIKR
As to B3, the Kd in assay [4] is 6.1 nM. In assay [5], the on-rate (kon) amounted to 73000 M⁻¹ s⁻¹.

B4: antibody with heavy chain CH7A (D99H) and light chain 2F1 (antibody, V domains shown)
VH: QVQLVQSGSELKKPGASVKVSCKASGYTFTEFGMNWVRQAPGQGLEWMGWINTKTGEATYVEEFKGRFVFSLDTSVSTAYLQISSLKAEDTAVYYCARWDFYHYVEAMDYWGQGTTVTVSS
VL: DIQMTQSPSSLSASVGDRVTITCKASAAVGTYVAWYQQKPGKAPKLLIYSASYRKRGVPSRFSGSGSGTDFTLTISSLQPEDFATYYCHQYYTYPLFTFGQGTKLEIKR
notes: Bivalent form
As to B4, the kon in assay [2] stood at 86500 M⁻¹ s⁻¹. Besides, the Kd in assay [3] was 2.25 nM.

B5: H3 Full (5) 8 x 2F1 (antibody, V domains shown)
VH: QVQLVQSGSELKKPGASVKVSCKASGYTFTEFGMNWVRQAPGQGLEWMGWINTKTGEATYVEEFKGRFVFSLDTSVSTAYLQISSLKAEDTAVYYCARWDFFEYFKTMDYWGQGTTVTVSS
VL: DIQMTQSPSSLSASVGDRVTITCKASAAVGTYVAWYQQKPGKAPKLLIYSASYRKRGVPSRFSGSGSGTDFTLTISSLQPEDFATYYCHQYYTYPLFTFGQGTKLEIK
notes: bivalent form; copies: 2 + 2
Take B5: in assay [1], the Kd worked out at 0.28 nM, the koff was 0.000271 s⁻¹ and the kon amounted to 993000 M⁻¹ s⁻¹.

B6: 1C8 x 2F1 (bivalent) (antibody, V domains shown)
VH: QVQLVQSGSELKKPGASVKVSCKASGYTFTEFGMNWVRQAPGQGLEWMGWINTKTGEATYVEEFKGRFVFSLDTSVSTAYLQISSLKAEDTAVYYCARWDFYHYVEAMDYWGQGTTVTVSS
VL: DIQMTQSPSSLSASVGDRVTITCKASAAVGTYVAWYQQKPGKAPKLLIYSASYRKRGVPSRFSGSGSGTDFTLTISSLQPEDFATYYCHQYYTYPLFTFGQGTKLEIK
notes: bivalent form of the clone; copies: 2 + 2
Regarding B6, in assay [1], the Kd came out at 0.66 nM, the off-rate (koff) came to 0.000636 s⁻¹ and the association rate constant (kon) came out at 968000 M⁻¹ s⁻¹.

B7: anti-CEA antibody with heavy chain CH1A1E and light chain 2F1 (antibody, V domains shown)
VH: QVQLVQSGAEVKKPGASVKVSCKASGYTFTEFGMNWVRQAPGQGLEWMGWINTKTGEATYVEEFKGRFTMTTDTSTSTAYMELRSLRSDDTAVYYCARWDFYDYVEAMDYWGQGTTVTVSS
VL: DIQMTQSPSSLSASVGDRVTITCKASAAVGTYVAWYQQKPGKAPKLLIYSASYRKRGVPSRFSGSGSGTDFTLTISSLQPEDFATYYCHQYYTYPLFTFGQGTKLEIKR
Molecule B7 displayed a Kd in assay [4] of 20 nM. Further, the kon in assay [5] turned out to be 21100 M⁻¹ s⁻¹.

B8: antibody with heavy chain CH7A (D99Y) and light chain 2F1 (antibody, V domains shown)
VH: QVQLVQSGSELKKPGASVKVSCKASGYTFTEFGMNWVRQAPGQGLEWMGWINTKTGEATYVEEFKGRFVFSLDTSVSTAYLQISSLKAEDTAVYYCARWDFYYYVEAMDYWGQGTTVTVSS
VL: DIQMTQSPSSLSASVGDRVTITCKASAAVGTYVAWYQQKPGKAPKLLIYSASYRKRGVPSRFSGSGSGTDFTLTISSLQPEDFATYYCHQYYTYPLFTFGQGTKLEIKR
notes: Bivalent form
Molecule B8 returned a kon in assay [2] of 114000 M⁻¹ s⁻¹. The same molecule showed a Kd in assay [3] of 1.73 nM.

B9: antibody with heavy chain CH7A (E102Q) and light chain 2F1 (antibody, V domains shown)
VH: QVQLVQSGSELKKPGASVKVSCKASGYTFTEFGMNWVRQAPGQGLEWMGWINTKTGEATYVEEFKGRFVFSLDTSVSTAYLQISSLKAEDTAVYYCARWDFYDYVQAMDYWGQGTTVTVSS
VL: DIQMTQSPSSLSASVGDRVTITCKASAAVGTYVAWYQQKPGKAPKLLIYSASYRKRGVPSRFSGSGSGTDFTLTISSLQPEDFATYYCHQYYTYPLFTFGQGTKLEIKR
notes: Bivalent form
B9 displayed a kon in assay [2] of 198000 M⁻¹ s⁻¹. This molecule gave a Kd in assay [3] of 1.63 nM.

B10: H4E9 x 3A1 (antibody, V domains shown)
VH: QVQLVQSGSELKKPGASVKVSCKASGYTFTEFGMNWVRQAPGQGLEWMGWINTKTGEATYIEEFKGRFVFSLDTSVSTAYLQISSLKAEDTAVYYCARWDFYDYVEAMDYWGQGTTVTVSS
VL: DIQMTQSPSSLSASVGDRVTITCKASANVGNNVAWYQQKPGKAPKLLIYLASNRSGGVPSRFSGSGSGTDFTLTISSLQPEDFATYYCHQYYTYPLFTFGQGTKLEIKR
notes: bivalent form
In assay [1], B10 displayed a Kd of 0.55 nM, a koff of 0.000136 s⁻¹ and a kon of 246000 M⁻¹ s⁻¹.

B11: H3 Full (5) 19 x 2F1 (bivalent) (antibody, V domains shown)
VH: QVQLVQSGSELKKPGASVKVSCKASGYTFTEFGMSWVRQAPGQGLEWMGWINTKTGEATYVEEFKGRFVFSLDTSVSTAYLQISSLKAEDTAVYYCARWDAFEYVKALDYWGQGTTVTVSS
VL: DIQMTQSPSSLSASVGDRVTITCKASAAVGTYVAWYQQKPGKAPKLLIYSASYRKRGVPSRFSGSGSGTDFTLTISSLQPEDFATYYCHQYYTYPLFTFGQGTKLEIK
notes: as for B6
In assay [1], B11 registered a Kd of 0.16 nM, a koff of 0.000284 s⁻¹ and an on-rate (kon) of 1.76e+06 M⁻¹ s⁻¹.

B12: 1C8 x 3A1 (antibody, V domains shown)
VH: QVQLVQSGSELKKPGASVKVSCKASGYTFTEFGMNWVRQAPGQGLEWMGWINTKTGEATYVEEFKGRFVFSLDTSVSTAYLQISSLKAEDTAVYYCARWDFYHYVEAMDYWGQGTTVTVSS
VL: DIQMTQSPSSLSASVGDRVTITCKASANVGNNVAWYQQKPGKAPKLLIYLASNRSGGVPSRFSGSGSGTDFTLTISSLQPEDFATYYCHQYYTYPLFTFGQGTKLEIK
notes: bivalent form
In assay [1], B12 came in with a Kd of 0.888 nM, a koff of 0.000257 s⁻¹ and a kon of 289000 M⁻¹ s⁻¹.

B13: 3A1 (bivalent) (antibody, V domains shown)
VH: QVQLVQSGSELKKPGASVKVSCKASGYTFTEFGMNWVRQAPGQGLEWMGWINTKTGEATYVEEFKGRFVFSLDTSVSTAYLQISSLKAEDTAVYYCARWDFYDYVEAMDYWGQGTTVTVSS
VL: DIQMTQSPSSLSASVGDRVTITCKASANVGNNVAWYQQKPGKAPKLLIYLASNRSGGVPSRFSGSGSGTDFTLTISSLQPEDFATYYCHQYYTYPLFTFGQGTKLEIK
notes: bivalent form of the clone
As for B13, in assay [1], the Kd was found to be 1.5 nM, the koff was found to be 0.000364 s⁻¹ and the kon worked out at 242000 M⁻¹ s⁻¹.

B14: 1C8 x 2F1 (Fab, V domains shown)
VH: QVQLVQSGSELKKPGASVKVSCKASGYTFTEFGMNWVRQAPGQGLEWMGWINTKTGEATYVEEFKGRFVFSLDTSVSTAYLQISSLKAEDTAVYYCARWDFYHYVEAMDYWGQGTTVTVSS
VL: DIQMTQSPSSLSASVGDRVTITCKASAAVGTYVAWYQQKPGKAPKLLIYSASYRKRGVPSRFSGSGSGTDFTLTISSLQPEDFATYYCHQYYTYPLFTFGQGTKLEIK
notes: also called 1C8 x 2F1 hc/lc, monovalent; copies: 1 + 1
As to B14, in assay [6], the Kd worked out at 128 nM, the koff came out at 0.0087 s⁻¹ and the kon amounted to 68100 M⁻¹ s⁻¹.
